# ± gives the uncertainty stated by the source.
# Assay: amyloid nucleation score (Sup35N fusion, yeast selection) (log enrichment); library NNK2; higher = more nucleation; inactive = no reads after selection
# In short: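 Random libraries were run with three technical output replicates. In each, psi-negative yeast expressing Sup35N fused to peptides of 20 random codons were induced 24 hours with 100 μM copper sulfate and grown 7 days at 30°C on medium lacking adenine and uracil, and input and output plasmid inserts were Illumina-sequenced. The nucleation score is the DiMSum log enrichment of output over input reads, centred on the mode score of non-aggregating sequences, and sequences under 100 input reads were excluded.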
row,Substance,amyloid nucleation score
1,KICCIQVLLKYMGQWVQFR,0.053 ± 1.1
2,PVIYSF,7.115 ± 0.031
3,RSDVFIGTSIFGALSCV,-0.025 ± 0.45
4,HVFMSTIKICRDQLNHQLRE,7.729 ± 0.037
5,YHRSCFWDYLISDGLKQACH,-1.51 ± 0.78
6,INMTLELDSVRRNLLYAGGG,-0.142 ± 0.55
7,GKKTAGDIRCWWRWSLGCSP,0.731 ± 0.57
8,QFVHRYGDHNAGVLPSYRKS,5.22 ± 0.066
9,VSAKVFSGGKESVMMCWPPL,1.58 ± 0.41
10,SDDLCHCIFGVVPGKSFPTM,inactive
11,ASSIG,0.072 ± 0.26
12,SWRAYSSF,2.73 ± 0.081
13,FKNCDGRNIRSSHNPFNMVR,-0.857 ± 0.34
14,MRCNYLAEYRFQRG,-0.669 ± 0.44
15,EKMLF,0.528 ± 0.34
16,VTVVWESDSFRYVYWLNRLE,0.926 ± 0.48
17,GAMTSMDVCL,-0.062 ± 0.65
18,TRPVNLDLIFISSG,2.92 ± 0.098
19,AYSSMCSTMRNKCCL,0.504 ± 0.6
20,HIILIEGSMVCQTLVRGDLV,5.514 ± 0.042
21,FSCSSDCLIFVSHRNRVLLN,-0.596 ± 0.37
22,EFCSYDGCYFIASMAFVDTR,-0.393 ± 1.1
23,YCGKTIQCSRRAPTAEDLGM,2.76 ± 0.12
24,MGAVESGKSRSMCAVLAWSE,1.02 ± 0.41

row,Substance,amyloid nucleation score
1,HSWILNHNIDVTIGNVTWSG,6.863 ± 0.03
2,PLGSMTNDTTDRNFEVSGRG,-0.106 ± 0.31
3,NVLDASRNLE,1.14 ± 0.42
4,TDRIDCAFAYDYL,-1.08 ± 0.54
5,IDYRPDCQRPVLVYLNKGCM,-0.389 ± 0.24
6,TSGMYMCFLMLLVFCQLLNG,-1.21 ± 0.44
7,PGTKLLSSVNAQRDSLKKGG,-0.478 ± 0.4
8,IQPQSSVVERGQMNMVGPTP,1.49 ± 0.12
9,CGLNCVAGGREEDRVYVLSS,0.088 ± 0.22
10,FWCGCNFVVHLYVTSSSLKP,8.006 ± 0.065
11,LTIYRSHDVRM,3.88 ± 0.043
12,GLSELMKGLLTN,0.08 ± 0.79
13,ERILSFFF,inactive
14,HNITLLQLNCKWLKMVYEWT,9.366 ± 0.061
15,CNIVRSYCLL,-0.937 ± 0.5
16,VCIMSRYKLQLLKNSNGITH,2.53 ± 0.16
17,LLVVIPYGSYWDV,-0.501 ± 0.78
18,AHPMEQCKIL,0.545 ± 0.41
19,VTANNFKWVVIWLSWRGYGD,-1.48 ± 1.1
20,LERWYYPMS,0.513 ± 0.16
21,NLTMYILRNYTCIMYYIKVC,-0.208 ± 1
22,TSARRQLDDQRAWPEMAN,0.239 ± 0.62
23,PISWGRLFNMVPR,-0.98 ± 0.55
24,HLPGWSGWRSDFDIHTSGVG,1.92 ± 0.25

row,Substance,amyloid nucleation score
1,MDVMVDW,-0.343 ± 0.63
2,RWPNLSDAQVWAPTSQLLSS,0.92 ± 0.32
3,FIKRAHVERFSLPKTPWSVD,-1.3 ± 1
4,ANVENVAYSDTISRSDSDVT,0.805 ± 0.66
5,SADRRQGITRFGTFNGGVRS,0.481 ± 0.24
6,DEEVSWRIG,0.196 ± 0.46
7,SISVKGLSGRLTVRYLLILV,-0.669 ± 1
8,SFNRS,0.87 ± 0.31
9,YQKCTRIFQILCGSACLKTR,-0.649 ± 0.64
10,VYYSGALFQNVLYLLSFMVV,-0.501 ± 1.1
11,HFKSSKECSKWVGICREEGR,0.338 ± 0.46
12,LYYMHNE,-0.652 ± 0.64
13,PSSDGIRITSDGILMSVDNG,0.918 ± 0.58
14,QVCFHDQ,-0.589 ± 0.48
15,FSFSEHRL,0.045 ± 0.79
16,ADSWWSLYNIFEFSSINLNV,inactive
17,SFNDESGFLLSSGYPISFKR,inactive
18,YVQRNNARVTLGGTHSFRSV,3.83 ± 0.068
19,LDALGLDTFNMQLV,0.236 ± 0.28
20,GRILNFMSHDWGDHMICGKK,0.65 ± 0.66
21,WEYTG,0.242 ± 0.74
22,SSTIGVGRSLFLLMFYRDLI,-1.44 ± 1
23,MRLNYVYGCSFLDRIGT,0.57 ± 0.33
